In publication PMC4010494:

Target: chicken lysozyme (chicken) (UniProt P00698)
Assay: far-Western, overlay or dot blot; proteins resolved by SDS-PAGE and transferred to PVDF; biotinylated CaM 1:2400, 30 min at room temperature in TBS-T with 1 mM CaCl2; VectaStain, chemi-luminescence

For “biotinylated calmodulin (CaM) (from UniProt P0DP23 1-149) (natural protein; other documents disagree on this pair)”, the fold lower CaM binding signal than for CaMKII was 500 fold.
